Measurements published in article PMC3097272 (The FEBS journal, 2011).

B1: recombinant HGAL protein (Trx-HGAL fusion protein) (natural protein, human, UniProt Q8N6F7 1-178, looked up)
chain: MGNSLLRENRRQQNTQEMPWNVRMQSPKQRTSRCWDHHIAEGCFCLPWKKILIFEKRQDSQNENERMSSTPIQDNVDQTYSEELCYTLINHRVLCTRPSGNSAEEYYENVPCKAERPRESLGGTETEYSLLHMPSTDPRHARSPEDEYELLMPHRISSHFLQQPRPLMAPSETQFSHL

Experiments:
[1] = target: non-muscle human F-actin (human) (UniProt P60709); assay: co-sedimentation
[2] = target: rabbit skeletal muscle myosin II (rabbit, UniProt Q28641 1-1938; P02602 1-192; P02608 1-170); assay: co-sedimentation
Sequence of rabbit skeletal muscle myosin II (Q28641 whole entry, chain 1 of 3): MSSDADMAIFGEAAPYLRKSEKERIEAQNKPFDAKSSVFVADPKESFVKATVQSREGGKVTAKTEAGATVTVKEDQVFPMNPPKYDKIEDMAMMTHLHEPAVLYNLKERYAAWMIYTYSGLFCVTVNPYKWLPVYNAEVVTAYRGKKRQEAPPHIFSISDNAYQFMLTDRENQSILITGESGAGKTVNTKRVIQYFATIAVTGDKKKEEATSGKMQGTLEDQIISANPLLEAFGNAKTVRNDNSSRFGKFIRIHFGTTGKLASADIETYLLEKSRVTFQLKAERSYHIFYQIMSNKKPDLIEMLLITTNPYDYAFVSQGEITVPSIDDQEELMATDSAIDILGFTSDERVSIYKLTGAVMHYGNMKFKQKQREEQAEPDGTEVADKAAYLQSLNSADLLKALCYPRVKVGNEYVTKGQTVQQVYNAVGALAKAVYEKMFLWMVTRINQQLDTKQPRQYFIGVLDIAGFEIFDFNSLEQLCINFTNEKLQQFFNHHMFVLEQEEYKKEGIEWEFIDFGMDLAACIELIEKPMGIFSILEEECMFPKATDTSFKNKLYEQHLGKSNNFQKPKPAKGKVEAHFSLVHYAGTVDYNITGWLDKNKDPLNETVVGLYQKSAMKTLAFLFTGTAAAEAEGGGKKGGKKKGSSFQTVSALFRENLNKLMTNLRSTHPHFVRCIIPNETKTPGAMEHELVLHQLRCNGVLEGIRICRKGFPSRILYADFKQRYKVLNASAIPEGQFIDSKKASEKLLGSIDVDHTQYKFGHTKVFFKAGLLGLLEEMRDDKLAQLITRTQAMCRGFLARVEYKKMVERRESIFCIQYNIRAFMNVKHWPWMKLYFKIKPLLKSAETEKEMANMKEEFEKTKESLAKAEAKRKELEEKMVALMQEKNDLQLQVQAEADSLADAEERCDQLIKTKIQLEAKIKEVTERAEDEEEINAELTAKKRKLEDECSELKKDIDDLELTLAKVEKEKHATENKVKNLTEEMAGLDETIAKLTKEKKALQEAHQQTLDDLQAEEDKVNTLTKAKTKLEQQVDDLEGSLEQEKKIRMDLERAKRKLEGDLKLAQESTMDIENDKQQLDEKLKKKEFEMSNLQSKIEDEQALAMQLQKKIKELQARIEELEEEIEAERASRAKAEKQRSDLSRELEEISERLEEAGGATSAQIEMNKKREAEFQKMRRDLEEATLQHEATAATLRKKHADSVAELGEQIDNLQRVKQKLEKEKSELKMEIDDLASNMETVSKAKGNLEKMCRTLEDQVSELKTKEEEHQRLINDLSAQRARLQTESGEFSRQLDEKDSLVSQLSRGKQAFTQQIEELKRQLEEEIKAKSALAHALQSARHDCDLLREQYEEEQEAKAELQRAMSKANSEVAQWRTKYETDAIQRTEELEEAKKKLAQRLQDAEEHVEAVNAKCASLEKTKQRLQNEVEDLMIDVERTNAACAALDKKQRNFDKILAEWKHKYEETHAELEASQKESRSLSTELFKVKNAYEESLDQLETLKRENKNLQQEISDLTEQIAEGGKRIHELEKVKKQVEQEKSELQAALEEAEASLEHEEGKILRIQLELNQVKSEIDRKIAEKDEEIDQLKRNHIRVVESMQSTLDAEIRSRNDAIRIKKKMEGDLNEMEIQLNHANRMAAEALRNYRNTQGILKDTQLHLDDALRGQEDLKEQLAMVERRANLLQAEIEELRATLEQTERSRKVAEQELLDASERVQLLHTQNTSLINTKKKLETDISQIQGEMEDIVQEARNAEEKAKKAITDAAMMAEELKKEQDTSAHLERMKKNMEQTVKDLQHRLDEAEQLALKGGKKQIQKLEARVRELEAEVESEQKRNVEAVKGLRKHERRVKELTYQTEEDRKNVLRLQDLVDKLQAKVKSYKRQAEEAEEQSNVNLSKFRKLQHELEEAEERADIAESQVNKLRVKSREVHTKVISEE
Sequence of rabbit skeletal muscle myosin II (P02602 2-192, chain 2 of 3): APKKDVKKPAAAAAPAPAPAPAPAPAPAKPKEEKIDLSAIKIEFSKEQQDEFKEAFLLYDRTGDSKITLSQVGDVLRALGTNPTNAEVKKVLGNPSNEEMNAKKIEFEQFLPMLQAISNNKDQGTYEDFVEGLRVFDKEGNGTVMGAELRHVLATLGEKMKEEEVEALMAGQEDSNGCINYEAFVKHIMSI
Sequence of rabbit skeletal muscle myosin II (P02608 2-170, chain 3 of 3): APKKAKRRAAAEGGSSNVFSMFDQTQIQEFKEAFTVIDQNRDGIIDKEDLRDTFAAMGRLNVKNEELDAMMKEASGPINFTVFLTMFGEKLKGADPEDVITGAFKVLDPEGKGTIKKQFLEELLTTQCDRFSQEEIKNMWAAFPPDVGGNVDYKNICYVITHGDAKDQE

Molecule | stoichiometry N (molar ratio (to 1)) [1] | stoichiometry N [2]
recombinant HGAL protein (Trx-HGAL fusion protein) (from UniProt Q8N6F7 1-178) (natural protein) | 5 | –
B1 | – | 2.5 molar ratio (to 1)
